doi:10.1101/559005
pKd: −log10 of the molar value.

Legend:
[1] = target: ScSth1p Ser1276Glu mutant bromodomain (S. cerevisiae) (UniProt P32597); assay: ITC
[2] = target: ScSth1p bromodomain (residues 1250-1359), wild type (S. cerevisiae) (UniProt P32597); assay: ITC

pKd [1] | pKd [2] | Substance
5.52 | 4.74 | H3K14ac peptide
4.51 | 4.32 | H4K20ac peptide
 | 4.36 | HsH2AK15ac peptide
